Tests used:
[1] = target: T1, human IL-17R.Fc (human); test: indirect sandwich ELISA; receptor.Fc captured on goat anti-human IgG-Fc, biotinylated cytokine titrated
T1 construct: also called hIL-17R.Fc; IL-17RA.Fc
Protocol: (§1) Binding of human IL-17F, hIL-17A or hIL-17F/IL-17A to human IL-17R.Fc (hIL-17R.Fc) and IL-17RC.Fc (hIL-17RC.Fc) was determined by indirect sandwich ELISA. ELISA plates (Costar, Cambridge Mass.) were coated overnight with 10 μg/ml goat anti-human IgG-Fc (Bethyl Laboratories, Montgomery, Tex.). Human IL-17R.Fc or hIL17-RC.Fc was then loaded at 6 ng/ml and 30 ng/ml, respectively, for 3 hours, followed by serial dilutions of biotinylated IL-17A, IL-17F or IL-17F/IL-17A for 2 hours. The plate was developed with Poly-HRP Streptavidin (Pierce Biotechnology, Rockford, Ill.) and TMB Substrate (KPL Labs, Gaithersburg, Md.).
(§2) The binding of hIL-17F, hIL-17A or hIL-17F/IL-17A to hIL-17R.Fc and/or hIL-17RC.Fc was evaluated by indirect sandwich ELISA. All three cytokines bound to hIL-17RC.Fc with approximately the same EC₅₀ of 18-25 ng/ml (FIG. 1B). However, the EC₅₀ for the three cytokines were different for binding to hIL-17R.Fc. The tightest binding occurred between hIL-17A and hIL-17R.Fc with an EC₅₀ of 25 ng/ml. Human IL-17F bound weakly to hIL-17R.Fc with an EC₅₀ greater than 2000 ng/ml.

[2] = target: T2, human IL-17RC.Fc (human); test: indirect sandwich ELISA: IL-17RC.Fc captured on goat anti-human IgG-Fc, biotinylated cytokine titrated, Poly-HRP streptavidin
T2 construct: also called hIL-17RC.Fc
Protocol: as §1, §2

T1 sequence (chain, as listed by the source limits assumed): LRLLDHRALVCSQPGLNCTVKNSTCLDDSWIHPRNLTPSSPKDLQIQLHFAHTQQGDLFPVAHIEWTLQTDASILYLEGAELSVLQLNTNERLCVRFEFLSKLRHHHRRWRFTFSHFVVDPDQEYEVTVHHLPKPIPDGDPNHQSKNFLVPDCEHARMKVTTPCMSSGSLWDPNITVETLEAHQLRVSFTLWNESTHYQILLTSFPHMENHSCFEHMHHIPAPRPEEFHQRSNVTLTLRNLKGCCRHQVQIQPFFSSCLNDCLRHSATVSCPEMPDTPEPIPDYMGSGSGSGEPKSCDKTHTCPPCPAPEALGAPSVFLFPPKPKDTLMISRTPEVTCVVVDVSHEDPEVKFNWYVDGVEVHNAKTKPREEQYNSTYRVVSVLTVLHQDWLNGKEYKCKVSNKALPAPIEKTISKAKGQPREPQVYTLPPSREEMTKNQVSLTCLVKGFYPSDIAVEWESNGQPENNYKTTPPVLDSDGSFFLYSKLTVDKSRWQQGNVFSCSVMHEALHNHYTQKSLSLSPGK
T2 sequence (chain, as listed by the source limits assumed): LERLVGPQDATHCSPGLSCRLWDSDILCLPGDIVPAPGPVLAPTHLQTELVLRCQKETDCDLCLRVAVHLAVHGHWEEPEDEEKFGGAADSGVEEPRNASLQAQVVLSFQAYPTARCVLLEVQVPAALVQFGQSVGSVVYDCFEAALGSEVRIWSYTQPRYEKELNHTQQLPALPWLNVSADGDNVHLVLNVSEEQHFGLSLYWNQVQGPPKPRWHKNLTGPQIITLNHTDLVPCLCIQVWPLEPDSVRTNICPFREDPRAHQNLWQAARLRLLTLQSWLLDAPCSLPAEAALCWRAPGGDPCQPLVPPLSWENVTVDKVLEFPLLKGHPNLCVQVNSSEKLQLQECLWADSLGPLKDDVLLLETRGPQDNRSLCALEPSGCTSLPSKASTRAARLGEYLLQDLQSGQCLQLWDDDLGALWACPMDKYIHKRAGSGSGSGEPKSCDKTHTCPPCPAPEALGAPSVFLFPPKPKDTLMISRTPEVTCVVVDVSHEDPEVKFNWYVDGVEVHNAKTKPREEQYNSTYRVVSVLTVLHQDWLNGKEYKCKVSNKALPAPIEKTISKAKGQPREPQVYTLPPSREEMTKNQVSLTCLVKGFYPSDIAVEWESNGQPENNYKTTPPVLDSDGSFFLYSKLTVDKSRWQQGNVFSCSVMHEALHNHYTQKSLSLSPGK

EC50 [1]: > 2 µg/mL
EC50 (read off the curve) [2]: ~0.02 µg/mL
B1: human IL-17F (ligand)
chain: RKIPKVGHTFFQKPESCPPVPGGSMKLDIGIINENQRVSMSRNIESRSTSPWNYTVTWDPNRYPSEVVQAQCRNLGCINAQGKEDISMNSVPIQQETLVVRRKHQGCSVSFQLEKVLVTVGCTCVTPVIHHVQ
modifications: biotinylated in the ELISA (FluoReporter Mini-biotin-XX kit); sites not stated
notes: Homodimer; also called hIL-17F

Reference: patent publication US20080241130A1 (published 2008)
